We go through 16 molecules from patent publication US20250136682A1 (ACADEMIA SINICA, published 2025).

Residue numbers refer to the chain shown, from its start.

Test [1] deals with T1, human Siglec-3 (CD33) on cells (human, UniProt P20138 18-364).
T1 construct: whole, on cells; also called human endogenous or exogenous Siglec-3
The experiment in a line: flow cytometry, APC-conjugated antibody titrated on human monocytes (endogenous Siglec-3). How it is done: (§1) For establishment of titration curves, human monocytes and moDCs (3×10⁴) were incubated with the indicated concentrations of the APC-conjugated anti-Siglec-3 antibodies 4H3-3A, 10C8, as well as hIgG1 control, and analyzed by a flow cytometry instrument (FACSVerse; BD Biosciences). Mean fluorescence intensity (MFI) was analyzed by a software FlowJo (TreeStar, Inc.).

Test [2] concerns the target T1, human Siglec-3 (CD33) on cells. The test is described as follows: flow cytometry on moDCs (data not shown).
The target is the same in test [3]. The experiment in a line: flow cytometry, APC-conjugated antibody titrated on human monocyte-derived dendritic cells (endogenous Siglec-3). How it is done:
as §1

Test [4] deals with T2, mouse Siglec-3 expressed in HEK-293T cells (mouse, UniProt Q63994 17-403).
T2 construct: whole, on cells
T2 sequence (looked up): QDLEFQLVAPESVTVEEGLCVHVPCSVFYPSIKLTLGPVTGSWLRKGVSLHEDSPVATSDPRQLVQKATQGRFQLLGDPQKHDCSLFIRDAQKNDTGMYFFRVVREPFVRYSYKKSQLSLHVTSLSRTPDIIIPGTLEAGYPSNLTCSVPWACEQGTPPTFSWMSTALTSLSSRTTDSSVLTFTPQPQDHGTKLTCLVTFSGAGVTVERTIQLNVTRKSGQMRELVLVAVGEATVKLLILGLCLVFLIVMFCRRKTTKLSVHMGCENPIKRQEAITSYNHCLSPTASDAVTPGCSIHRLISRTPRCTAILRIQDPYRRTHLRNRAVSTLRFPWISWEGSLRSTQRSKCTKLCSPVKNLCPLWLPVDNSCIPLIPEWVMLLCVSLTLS
The test is described as follows: flow cytometry, antibody titrated on HEK-293T cells expressing exogenous mouse Siglec-3.

Test [5] deals with T3, human CD33.Fc (recombinant extracellular domain of human Siglec-3 fused with Fc portion of hIgG1) (human, UniProt P20138 18-259).
T3 construct: extracellular domain; also called Siglec-3.Fc; not shown: Fc portion of human IgG1
The test is described as follows: SPR (BIAcore 2000), human CD33.Fc immobilized on CM5 chip. Here is the method:
Human IgG1 was first mobilized on channel one of a CM5 chip as the blank to determine the bulk effect of injection itself, whereas human CD33.Fc were immobilized on channel two for analysis of its kinetic interaction with wild various clones of anti-CD33 mAbs, respectively. The interaction between […] and anti-CD33 mAbs was determined by surface plasmon resonance using a Biacore instrument (BIAcore 2000).

T1 sequence (P20138 18-364): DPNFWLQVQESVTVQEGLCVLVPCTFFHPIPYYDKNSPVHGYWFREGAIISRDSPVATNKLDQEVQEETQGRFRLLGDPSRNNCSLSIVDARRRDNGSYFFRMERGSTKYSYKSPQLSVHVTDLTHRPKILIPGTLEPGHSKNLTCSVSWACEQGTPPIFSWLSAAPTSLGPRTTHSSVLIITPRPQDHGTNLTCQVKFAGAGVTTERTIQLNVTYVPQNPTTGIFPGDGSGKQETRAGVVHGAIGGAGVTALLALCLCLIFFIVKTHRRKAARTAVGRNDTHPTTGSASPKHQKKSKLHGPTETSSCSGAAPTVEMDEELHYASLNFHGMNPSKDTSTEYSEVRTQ
T3 sequence (P20138 18-259): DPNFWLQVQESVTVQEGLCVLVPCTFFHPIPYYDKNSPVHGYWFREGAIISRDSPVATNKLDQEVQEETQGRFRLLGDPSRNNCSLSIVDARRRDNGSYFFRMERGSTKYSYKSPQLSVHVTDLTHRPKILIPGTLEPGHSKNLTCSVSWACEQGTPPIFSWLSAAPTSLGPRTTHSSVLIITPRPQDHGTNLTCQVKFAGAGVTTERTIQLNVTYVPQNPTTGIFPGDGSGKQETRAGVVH

B1: anti-Siglec-3 antibody 10C8 (antibody, V domains shown)
VH: EVQLVESGGGLVQPGGSLRLSCAASGFTINNGWIHWVRQAPGKGLEWVAGIGPYGGSTFYADSVKGRFTISADTSKNTAYLQMNSLRAEDTAVYYCSRFIGSYSHMDYWGQGTLVTVSS
VL: DIQMTQSPSSLSASVGDRVTITCRASQDVYYYVAWYQQKPGKAPKLLISSAGGLYSGVPSRFSGSGSGTDFTLTISSLQPEDFATYYCQQYFNFPLTFGQGTKVEIKR
For B1, in test [1], the “EC50 (read off the curve)” value is roughly 200 nM.

B2: anti-Siglec-3 antibody S3H1-85 reformatted into human IgG1 or IgG4 (antibody, V domains shown)
VH: VQLVESGGGLVQPGGSLRLSCAASGFTIGSGWIHWVRQAPGKGLEWVAGIGPYGGYTYYADSVKGRFTISADTSKNTAYLQMNSLRAEDTAVYYCARFNDHWDLWMDYWGQGTLVTVSS
VL: B1 VL with Y31G, S50Y, A51T, G52P, F92Y, N93D, L96I
notes: also called 1S3H1-85; 4S3H1-85
Take B2: the binding result in test [2] is given as “binds”.

B3: anti-Siglec-3 antibody H3-7G reformatted into human IgG1 or IgG4 (antibody, V domains shown)
VH: B2 VH with G29D, S30D, W32F, N99R, H101D, W102K, D103P, L104Q, W105M
VL: B1 VL with Y31G, S50Y, A51T, G52P, F92Y, N93D, L96I
notes: also called 1H3-7G; 4H3-7G
For B3, the binding result in test [2] is “binds”.

B4: anti-Siglec-3 antibody S3H2-12 reformatted into human IgG1 or IgG4 (antibody, V domains shown)
VH: B2 VH with G29D, S30D, W32F, G49T, G51S, Y53N, G54T, Y56H, Y58N
VL: B1 VL with Y31G, S50Y, A51T, G52P, F92Y, N93D, L96I
notes: also called 1S3H2-12; 4S3H2-12
For the molecule B4, the binding result in test [2] was “binds”.

B5: anti-Siglec-3 antibody S3H1-74 reformatted into human IgG1 or IgG4 (antibody, V domains shown)
VH: B2 VH with G29H, S30G, G31S
VL: B1 VL with Y31G, S50Y, A51T, G52P, F92Y, N93D, L96I
notes: also called 1S3H1-74; 4S3H1-74
Consider B5, for which the binding result in test [2] is reported as “binds”.

B6: anti-Siglec-3 antibody S3H2-10 reformatted into human IgG1 or IgG4 (antibody, V domains shown)
VH: B2 VH with G29D, S30D, W32F, G49A, G51P, Y53L, G54Q, Y56K
VL: B1 VL with Y31G, S50Y, A51T, G52P, F92Y, N93D, L96I
notes: also called 1S3H2-10; 4S3H2-10
As for B6, the binding result in test [2] was “binds”.

B7: anti-Siglec-3 antibody S3H1-29 reformatted into human IgG1 or IgG4 (antibody, V domains shown)
VH: B2 VH with G29H, S30G, G31S, W102Q
VL: B1 VL with Y31G, S50Y, A51T, G52P, F92Y, N93D, L96I
notes: also called 1S3H1-29; 4S3H1-29
With B7, the binding result in test [2] was “binds”.

B8: anti-Siglec-3 antibody S3PL3-46 reformatted into human IgG1 or IgG4 (antibody, V domains shown)
VH: B2 VH with G29D, S30D, W32F
VL: B1 VL with Y31G, S50Y, A51T, G52P, F92S, N93R, F94M, L96I
notes: also called 1S3PL3-46; 4S3PL3-46
As to B8, the binding result in test [2] is on record as “binds”.

B9: anti-Siglec-3 antibody S3H2-8 reformatted into human IgG1 or IgG4 (antibody, V domains shown)
VH: B2 VH with G29D, S30D, W32F, G49A, G51K, Y53R, G54Q, Y56D, Y58S
VL: B1 VL with Y31G, S50Y, A51T, G52P, F92Y, N93D, L96I
notes: also called 1S3H2-8; 4S3H2-8
B9: the binding result in test [2] is listed as “binds”.

B10: anti-Siglec-3 antibody S3H1-76 reformatted into human IgG1 or IgG4 (antibody, V domains shown)
VH: B2 VH with G29S, G31S, W32Y
VL: B1 VL with Y31G, S50Y, A51T, G52P, F92Y, N93D, L96I
notes: also called 1S3H1-76; 4S3H1-76
For the molecule B10, the binding result in test [2] was “binds”.

B11: anti-Siglec-3 antibody H3-8F reformatted into human IgG1 or IgG4 (antibody, V domains shown)
VH: B2 VH with G29D, S30D, W32F, N99R, H101T, W102Q, D103S, L104Q, W105T
VL: B1 VL with Y31G, S50Y, A51T, G52P, F92Y, N93D, L96I
notes: also called 1H3-8F; 4H3-8F
B11: the binding result in test [2] was “binds”.

B12: anti-Siglec-3 antibody H3-10F reformatted into human IgG1 or IgG4 (antibody, V domains shown)
VH: B2 VH with G29D, S30D, W32F, N99A, D100T, W102D, D103Q, L104P, W105L
VL: B1 VL with Y31G, S50Y, A51T, G52P, F92Y, N93D, L96I
notes: also called 1H3-10F; 4H3-10F
With B12, the binding result in test [2] is listed as “binds”.

B13: anti-Siglec-3 antibody H3-10E reformatted into human IgG1 or IgG4 (antibody, V domains shown)
VH: B2 VH with G29D, S30D, W32F, N99Q, D100N, H101S, W102P, D103T, L104K, W105T
VL: B1 VL with Y31G, S50Y, A51T, G52P, F92Y, N93D, L96I
notes: also called 1H3-10E; 4H3-10E
As for B13, the binding result in test [2] was “binds”.

B14: anti-Siglec-3 antibody H3-9E reformatted into human IgG1 or IgG4 (antibody, V domains shown)
VH: B2 VH with G29D, S30D, W32F, N99G, D100H, H101P, W102P, D103Y, L104D, W105Y
VL: B1 VL with Y31G, S50Y, A51T, G52P, F92Y, N93D, L96I
notes: also called 1H3-9E; 4H3-9E
With B14, the binding result in test [2] was “binds”.

B15: 1H3-3A (antibody, human IgG1, kappa)
light chain: DGTDIQMTQSPSSLSASVGDRVTITCRASQDVYGYVAWYQQKPGKAPKLLISYTPGLYSGVPSRFSGSGSGTDFTLTISSLQPEDFATYYCQQYYDFPITFGQGTKVEIKRTVAAPSVFIFPPSDEQLKSGTASVVCLLNNFYPREAKVQWKVDNALQSGNSQESVTEQDSKDSTYSLSSTLTLSKADYEKHKVYACEVTHQGLSSPVTKSFNRGEC
heavy chain: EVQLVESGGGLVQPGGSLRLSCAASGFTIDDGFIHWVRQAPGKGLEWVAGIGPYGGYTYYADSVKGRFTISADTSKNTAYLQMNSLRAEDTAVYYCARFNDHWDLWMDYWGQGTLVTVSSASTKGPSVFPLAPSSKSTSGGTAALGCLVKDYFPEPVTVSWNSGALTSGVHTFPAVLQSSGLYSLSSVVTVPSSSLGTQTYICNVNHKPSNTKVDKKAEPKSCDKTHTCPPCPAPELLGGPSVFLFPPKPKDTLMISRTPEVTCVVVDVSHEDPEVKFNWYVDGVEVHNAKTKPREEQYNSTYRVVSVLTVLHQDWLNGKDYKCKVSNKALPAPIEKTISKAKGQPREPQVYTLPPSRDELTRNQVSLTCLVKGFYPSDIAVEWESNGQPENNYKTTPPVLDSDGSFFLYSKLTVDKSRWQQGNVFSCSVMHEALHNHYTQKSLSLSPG
As for B15, the “EC50 (read off the curve)” value is roughly 100 nM in test [1] and roughly 30 nM in test [3].

B16: anti-Siglec-3 antibody 4H3-3A (scFv clone H3-3A reformatted into hIgG4) (antibody)
heavy: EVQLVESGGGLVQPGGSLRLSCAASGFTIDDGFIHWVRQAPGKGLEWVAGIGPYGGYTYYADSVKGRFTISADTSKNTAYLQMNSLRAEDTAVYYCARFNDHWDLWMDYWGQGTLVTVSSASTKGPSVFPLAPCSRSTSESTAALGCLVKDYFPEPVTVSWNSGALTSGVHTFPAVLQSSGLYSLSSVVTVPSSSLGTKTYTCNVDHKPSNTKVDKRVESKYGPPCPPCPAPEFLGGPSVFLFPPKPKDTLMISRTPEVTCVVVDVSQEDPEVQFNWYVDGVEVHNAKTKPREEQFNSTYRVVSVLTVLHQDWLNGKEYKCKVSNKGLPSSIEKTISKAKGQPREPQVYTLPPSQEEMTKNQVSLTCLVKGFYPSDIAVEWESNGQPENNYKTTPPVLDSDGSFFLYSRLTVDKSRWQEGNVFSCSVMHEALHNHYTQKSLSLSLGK
light: B15 light chain
notes: Human IgG4 format
As for B16, the binding result in test [4] is listed as “no binding”. In addition, in test [5], the Kd was 8.88 nM, the koff was 0.0373 s⁻¹ and the on-rate (kon) was found to be 4.21e+06 M⁻¹ s⁻¹.
